Test results reported in US20260097101.

What was measured:
[1] = target: Native pancreatic polypeptide (PP)
[2] = target: [P^3]PP

B1: purified porcine DPP-4 (dipeptidyl peptidase-4) (protein)
chain: DSRRTYTLTDYLKSTFRVKFYTLQWISDHEYLYKQENNILLFNAEYGNSSIFLENSTFDELGYSTNDYSVSPDRQFILFEYNYVKQWRHSYTASYDIYDLNKRQLITEERIPNNTQWITWSPVGHKLAYVWNNDIYVKNEPNLSSQRITWTGKENVIYNGVTDWVYEEEVFSAYSALWWSPNGTFLAYAQFNDTEVPLIEYSFYSDESLQYPKTVRIPYPKAGAENPTVKFFVVDTRTLSPNASVTSYQIVPPASVLIGDHYLCGVTWVTEERISLQWIRRAQNYSIIDICDYDESTGRWISSVARQHIEISTTGWVGRFRPAEPHFTSDGNSFYKIISNEEGYKHICHFQTDKSNCTFITKGAWEVIGIEALTSDYLYYISNEHKGMPGGRNLYRIQLNDYTKVTCLSCELNPERCQYYSASFSNKAKYYQLRCFGPGLPLYTLHSSSSDKELRVLEDNSALDKMLQDVQMPSKKLDVINLHGTKFWYQMILPPHFDKSKKYPLLIEVYAGPCSQKVDTVFRLSWATYLASTENIIVASFDGRGSGYQGDKIMHAINRRLGTFEVEDQIEATRQFSKMGFVDDKRIAIWGWSYGGYVTSMVLGAGSGVFKCGIAVAPVSKWEYYDSVYTERYMGLPTPEDNLDYYRNSTVMSRAENFKQVEYLLIHGTADDNVHFQQSAQLSKALVDAGVDFQTMWYTDEDHGIASNMAHQHIYTHMSHFLKQCFSLP
[1]
  DPP-4 stability (degradation by purified DPP-4, 5 mU, 0-8 h; RP-HPLC and MALDI-ToF): <2 h
[2]
  DPP-4 stability (degradation by purified DPP-4, 5 mU, 0-8 h; RP-HPLC and MALDI-ToF): >8 h
